Assay results as given in patent publication US20140271648A1 (Janssen / Centocor, published 2014).
Substitutions are numbered along the chain they refer to.

Tests used:
human IFNαJ1 [1] = molecular target: T1, human IFNαJ1 (human, UniProt P01567 24-189); test: cell-based or functional assay
human IFNαH2 [2] = molecular target: T2, human IFNαH2 (human, UniProt P01570 24-189); test: cell-based or functional assay
human IFNαF [3] = molecular target: T3, human IFNαF (human, UniProt P01568 24-189); test: cell-based or functional assay
T3 chain: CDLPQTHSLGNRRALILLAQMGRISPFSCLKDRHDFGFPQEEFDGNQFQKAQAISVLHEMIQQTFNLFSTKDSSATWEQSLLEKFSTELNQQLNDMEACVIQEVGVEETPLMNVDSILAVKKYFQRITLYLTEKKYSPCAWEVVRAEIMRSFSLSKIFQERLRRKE

human IFNω [4] = molecular target: T4, human IFNω (human, UniProt P05000 24-195); test: cell-based or functional assay
T4 sequence (P05000 24-195 limits assumed): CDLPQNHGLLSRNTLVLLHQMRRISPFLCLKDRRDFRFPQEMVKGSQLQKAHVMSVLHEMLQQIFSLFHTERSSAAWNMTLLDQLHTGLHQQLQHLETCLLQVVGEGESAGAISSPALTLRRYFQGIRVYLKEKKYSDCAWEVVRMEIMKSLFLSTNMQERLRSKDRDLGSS

human IFNαC [5] = molecular target: T5, human IFNαC (human, UniProt P01566 24-189); test: cell-based or functional assay
T5 sequence (P01566 24-189): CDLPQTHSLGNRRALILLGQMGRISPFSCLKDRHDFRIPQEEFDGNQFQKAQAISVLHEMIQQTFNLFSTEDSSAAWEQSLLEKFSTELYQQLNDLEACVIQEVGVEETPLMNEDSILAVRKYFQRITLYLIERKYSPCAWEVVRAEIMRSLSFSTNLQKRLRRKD

human IFNαG [6] = molecular target: T6, human IFNαG (human, UniProt P01569 24-189); test: cell-based or functional assay
T6 sequence (P01569 24-189): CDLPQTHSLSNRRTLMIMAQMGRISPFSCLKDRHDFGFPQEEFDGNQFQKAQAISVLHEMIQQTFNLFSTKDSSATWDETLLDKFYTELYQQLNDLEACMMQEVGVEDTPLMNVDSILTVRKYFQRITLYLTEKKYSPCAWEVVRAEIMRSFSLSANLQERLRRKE

human IFNω T80E variant = molecular target: T7, human IFNω T80E variant (human, UniProt P05000 24-195); test: complex formed, purified by size exclusion and co-crystallized
T7 construct: Expressed in HEK293F cells; used for the crystal structures; In the Fab357 crystal only residues R22-P39 and L118-L154 were seen (proteolytic cleavage during crystallization); also called IFN-omega (T80E)
T7 sequence (P05000 24-195 T103E limits assumed): as the sequence (P05000 24-195 limits assumed) above, with T80E counted along it

human IFNαJ1 [7] = molecular target: T1, human IFNαJ1; test: SPR (ProteOn); mAb captured on anti-human Fc, IFN as analyte
Procedure: (§1) Binding affinities of the antibodies were performed using SPR technology with ProteOn (Bio-Rad Hercules, Calif.). Goat anti-human Fc antibodies (manufacture) were amine-coupled to GLC chips (Bio-Rad Hercules, Calif.) using standard NHS/EDC chemistry as manufacture recommended. The anti-IFN mAbs were then loaded on the antibody coupled chip for 2 minutes at the flow rate of 30 μl/min. […] The chips were generated with 100 mM phosphoric acid in each direction between running different antigens. Data analysis was performed using ProteOn manager (Bio-Rad Hercules, Calif.). The sensorgrams were grouped by mAbs. After applying alignment and reference correction (using either interspot or blank channel referencing), the SPR data were fit globally to Langmuir model for kinetic rate constants (KD=koff/kₒₙ, where KD=equilibrium dissociation constant, kₒₙ=association rate constant, and koff=dissociation rate constant).

human IFNαK [8] = molecular target: T8, human IFNαK (human, UniProt P05013 24-189); test: as above
T8 construct: also called Alpha K (alpha 6); IFNα6
T8 sequence (P05013 24-189): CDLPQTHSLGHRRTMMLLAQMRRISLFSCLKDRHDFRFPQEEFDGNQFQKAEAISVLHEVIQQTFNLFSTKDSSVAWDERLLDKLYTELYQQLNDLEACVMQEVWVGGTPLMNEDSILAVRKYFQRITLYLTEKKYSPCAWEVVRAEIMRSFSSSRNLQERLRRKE
Procedure: as §1

human IFNαWA [9] = molecular target: T9, human IFNαWA (human, UniProt P05015 24-189); test: as above
T9 construct: also called Alpha WA (alpha 16)
Procedure: as §1

human IFNαD = molecular target: T10, human IFNαD (human, UniProt A0A087WWS6 25-190); test: as above
T10 construct: also called Alpha D (alpha 1); IFNα1
T10 chain: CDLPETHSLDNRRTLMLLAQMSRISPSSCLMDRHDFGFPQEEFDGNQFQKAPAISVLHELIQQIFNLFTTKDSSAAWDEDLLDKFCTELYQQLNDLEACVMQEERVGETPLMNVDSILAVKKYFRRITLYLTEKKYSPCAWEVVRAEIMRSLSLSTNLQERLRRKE
Procedure: as §1

human IFNαH2 [10] = molecular target: T2, human IFNαH2; test: as above
Procedure: as §1

human IFNαF [11] = molecular target: T3, human IFNαF; test: as above
Procedure: as §1

human IFNω [12] = molecular target: T4, human IFNω; test: as above
Procedure: as §1

human IFNαC [13] = molecular target: T5, human IFNαC; test: as above
Procedure: as §1

human IFNβ = molecular target: T11, human IFNβ (human, UniProt P01574 22-187); test: as above
T11 construct: also called interferon-β
T11 sequence (P01574 22-187 limits assumed): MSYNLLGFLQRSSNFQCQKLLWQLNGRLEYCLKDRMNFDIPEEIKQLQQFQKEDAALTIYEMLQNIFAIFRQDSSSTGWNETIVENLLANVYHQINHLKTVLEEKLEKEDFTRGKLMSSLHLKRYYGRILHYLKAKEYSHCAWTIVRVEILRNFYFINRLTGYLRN
Procedure: as §1

human IFNαG [14] = molecular target: T6, human IFNαG; test: as above
Procedure: as §1

human IFNαK [15] = molecular target: T8, human IFNαK; test: cell-based or functional assay
human IFNαWA [16] = molecular target: T9, human IFNαWA; test: cell-based or functional assay

T1 sequence (P01567 24-189): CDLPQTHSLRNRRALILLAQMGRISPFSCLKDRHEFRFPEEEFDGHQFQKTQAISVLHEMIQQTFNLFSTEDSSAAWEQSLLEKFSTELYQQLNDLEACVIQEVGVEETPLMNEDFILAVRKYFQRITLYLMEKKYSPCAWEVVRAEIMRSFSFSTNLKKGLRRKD
T2 sequence (P01570 24-189): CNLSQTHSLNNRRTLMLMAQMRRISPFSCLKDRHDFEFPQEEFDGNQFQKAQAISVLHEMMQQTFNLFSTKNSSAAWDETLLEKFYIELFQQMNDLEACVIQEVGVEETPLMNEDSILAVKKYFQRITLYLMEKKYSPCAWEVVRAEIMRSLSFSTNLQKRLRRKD

B1: C2595 (antibody, V domains shown)
VH: EVQLQQSGGDLVKPGGSLKLSCAASGFTFSSYGMSWVRQTPDKRLDWVSIITSGGSYTYYPDSVKGRFTISRDNAKNTLYLQMSSLKSEDTAMYYCARHAEGGGNYDYAMDYWGQGTSVTVSS
VL: DIVMTQAAFSNPVTLGTSASISCRSSKSLLHSNGITYLYWYLQKPGQSPQLLIYQMSNLASGVPDRFSSSGSGIDFTLRISRVEAEDVGAYYCAQNLELPFTFGSGTKLEIK
B1 was tested, and the “IC50, ISRE reporter gene assay” value (human IFNαJ1 [1]) was 1.4 nM, the “IC50, ISRE reporter gene assay” value (human IFNαH2 [2]) was 20.3 nM and the “IC50, ISRE reporter gene assay” value (human IFNαF [3]) was 2.6 nM. For the same binder, the “IC50, ISRE reporter gene assay” value (human IFNω [4]) was 0.9 nM, the “IC50, ISRE reporter gene assay” value (human IFNαC [5]) was 1.5 nM and the “IC50, ISRE reporter gene assay” value (human IFNαG [6]) was 2.6 nM.

B2: Fab357 (Fab, V domains shown)
VH: B1 VH
VL: B1 VL
notes: also called Fab of C2595
B2: binds (human IFNω T80E variant).

B3: M3239 (antibody, human IgG1, V domains shown)
VH: B1 VH
VL: B1 VL
In the case of B3, the Kd (human IFNαJ1 [7]) is reported as 4.3 nM, the binding result (human IFNαK [8]) is reported as “no binding (tested: antigen up to 100 nM)” and the binding result (human IFNαWA [9]) is reported as “no binding (tested: antigen up to 100 nM)”. The binding result (human IFNαD) was “no binding (tested: antigen up to 100 nM)”, the Kd (human IFNαH2 [10]) was 61.6 nM and the Kd (human IFNαF [11]) was 15.1 nM. For the same binder, the Kd (human IFNω [12]) was 4.5 nM, the Kd (human IFNαC [13]) was 1.3 nM and the binding result (human IFNβ) was “no binding (tested: antigen up to 100 nM)”. The Kd (human IFNαG [14]) was 10.3 nM.

B4: IFWM43 (antibody, V domains shown)
VH: QVQLVQSGAEVKKPGSSVKVSCKASGGTFSSYAISWVRQAPGQGLEWMGGIIPIFGTANYAQKFQGRVTITADESTSTAYMELSSLRSEDTAVYYCARDSWGSYYAALDYWGQGTLVTVSS
VL: not shown
notes: Fab from a pIX phage display library, converted to human IgG1 mAb; also called anti IFNα/ω mAb M43
For B4, the “IC50, ISRE reporter gene assay” value (human IFNαJ1 [1]) was 1 nM, the “IC50, ISRE reporter gene assay” value (human IFNαK [15]) was 10.4 nM and the “IC50, ISRE reporter gene assay” value (human IFNαWA [16]) was 9.2 nM. The “IC50, ISRE reporter gene assay” value (human IFNαH2 [2]) was 51 nM, the “IC50, ISRE reporter gene assay” value (human IFNαF [3]) was 3.7 nM and the “IC50, ISRE reporter gene assay” value (human IFNω [4]) was 18.5 nM. The “IC50, ISRE reporter gene assay” value (human IFNαC [5]) was 14.9 nM, the “IC50, ISRE reporter gene assay” value (human IFNαG [6]) was 5.3 nM and the Kd (human IFNαJ1 [7]) was 0.4 nM. For the same binder, the Kd (human IFNαK [8]) was 0.3 nM, the Kd (human IFNαWA [9]) was 0.6 nM and the binding result (human IFNαD) was “no binding (tested: antigen up to 100 nM)”. It also gave a Kd (human IFNαH2 [10]) of 0.6 nM, a Kd (human IFNαF [11]) of 0.9 nM and a Kd (human IFNω [12]) of 0.3 nM. For the same binder, the Kd (human IFNαC [13]) was 0.4 nM and the Kd (human IFNαG [14]) was 0.6 nM.

B5: FabM43 (Fab, V domains shown)
VH: B4 VH
VL: not shown
notes: His-tagged Fab, IgG1/κ isotype, expressed in HEK293F cells; also called Fab of IFWM43; His-tagged FabM43
B5: binds (human IFNω T80E variant).

B6: IFWM88 (antibody, V domains shown)
VH: B4 VH with D99H, S100L, W101E, G102Y, S103A, Y104F, Y105P, A106D, A107K, L108F
VL: not shown
notes: Fab from a pIX phage display library, converted to human IgG1 mAb
B6 was tested, and the “IC50, ISRE reporter gene assay” value (human IFNαJ1 [1]) was 21.9 nM, the “IC50, ISRE reporter gene assay” value (human IFNαF [3]) was 24.6 nM and the “IC50, ISRE reporter gene assay” value (human IFNαC [5]) was 136 nM. For the same binder, the “IC50, ISRE reporter gene assay” value (human IFNαG [6]) was 23.4 nM, the Kd (human IFNαJ1 [7]) was 4.5 nM and the Kd (human IFNαWA [9]) was 97.3 nM. The binding result (human IFNαD) was “no binding (tested: antigen up to 100 nM)”, the Kd (human IFNαH2 [10]) was 5.5 nM and the Kd (human IFNαF [11]) was 1 nM. The Kd (human IFNω [12]) was 53 nM, the Kd (human IFNαC [13]) was 3.2 nM and the binding result (human IFNβ) was “no binding (tested: antigen up to 100 nM)”. For the same binder, the Kd (human IFNαG [14]) was 0.8 nM.
